The target of assay [1] is T1, HLA-A24 molecule on the cell surface (HLA-A*2402) (human).
T1 construct: also called HLA-A24 antigen
Description: HLA-A24 stabilisation assay on T2-A24 cells, flow cytometry with C7709A2. In general terms: In flow cytometry, cells or beads pass a laser one at a time.
Description: T2-A24 cells, which are HLA-A24-expressing T2 cells, were preincubated in a CO₂ incubator at 27° C. overnight. The cells collected were resuspended in Opti-MEM and plated on a round bottom 96 well plate (Corning) with about 1×10⁵ cells/200 μL per well. A subject peptide was added at concentrations of 0.33 μM, 1 μM, and 10 μM, and incubation was carried out in a CO₂ incubator at 27° C. for 3 hours and subsequently at 37° C. for 2.5 hours. Subsequently, the cells were subjected to centrifugation (380 g, 5 minutes) as they were on the plate, resuspended in 100 μL of a C7709A2 monoclonal antibody-producing hybridoma culture supernatant, and incubated on ice for 45 to 60 minutes. The cells were washed with ice-cooled PBS and then incubated together with an FITC-conjugated goat anti-mouse IgG antibody (KPL, Gaithersburg, Md.) on ice for 30 minutes.

The target of assay [2] is T1, HLA-A24 molecule on the cell surface …. Description: not clear: FIG. 7 has no binding assay panel.

Consider HWNDTRPAHF (also called HF10) [PVT1-derived natural antigen peptide of SEQ ID No: 1 (HWNDTRPAHF)], for which, in assay [1], the binding result is on record as “binds”.

Regarding IFQGNVHNF (Synthetic peptide) [SNRNP40-derived natural peptide of SEQ ID No: 4 (IFQGNVHNF)], the binding result in assay [2] is “binds”.

RYGNVSHF (Synthetic peptide; also called RF8) [SUV39H2-derived natural antigen peptide of SEQ ID No: 2 (RYGNVSHF)]: the binding result in assay [1] is recorded as “binds”.

Source of the values: patent US20190117751A1 (SAPPORO MEDICAL UNIVERSITY, published 2019).
